These results are taken from patent US20210139559A1 (XL PROTEIN, published 2021).

To fix the notation:
B1: PDGFRαD123-PAS(300)-VEGFR1D2/R2D3 (receptor)
chain: QLSLPSILPNENEKVVQLNSSFSLRCFGESEVSWQYPMSEEESSDVEIRNEENNSGLFVTVLEVSSASAAHTGLYTCYYNHTQTEENELEGRHIYIYVPDPDVAFVPLGMTDYLVIVEDDDSAIIPCRTTDPETPVTLHNSEGVVPASYDSRQGFNGTFTVGPYICEATVKGKKFQTIPFNVYALKATSELDLEMEALKTVYKSGETIVVTCAVFNNEVVDLQWTYPGEVKGKGITMLEEIKVPSIKLVYTLTVPEATVKDSGDYECAARQATREVKEMKKVTISVHEKGASPAAPAPASPAAPAPSAPAASPAAPAPASPAAPAPSAPAASPAAPAPASPAAPAPSAPAASPAAPAPASPAAPAPSAPAASPAAPAPASPAAPAPSAPAASPAAPAPASPAAPAPSAPAASPAAPAPASPAAPAPSAPAASPAAPAPASPAAPAPSAPAASPAAPAPASPAAPAPSAPAASPAAPAPASPAAPAPSAPAASPAAPAPASPAAPAPSAPAASPAAPAPASPAAPAPSAPAASPAAPAPASPAAPAPSAPAASPAAPAPASPAAPAPSAPAASPAAPAPASPAAPAPSAPASDTGRPFVEMYSEIPEIIHMTEGRELVIPCRVTSPNITVTLKKFPLDTLIPDGKRIIWDSRKGFIISNATYKEIGLLTCEATVNGHLYKTNYLTHRQTNTIIDVVLSPSHGIELSVGEKLVLNCTARTELNVGIDFNWEYPSSKHQHKKLVNRDLKTQSGSEMKKFLSTLTIDGVTRSDQGLYTCAASSGLMTKKNSTFVRVHEKHHHHHH
notes: Expressed in CHO-3E7 cells, purified over a Ni column; also called EPS1103P
B2: PDGFRαD123-(GGGGS)3-PAS(600)-(GGGGS)3-VEGFR1D2/R2D3 (receptor)
chain: QLSLPSILPNENEKVVQLNSSFSLRCFGESEVSWQYPMSEEESSDVEIRNEENNSGLFVTVLEVSSASAAHTGLYTCYYNHTQTEENELEGRHIYIYVPDPDVAFVPLGMTDYLVIVEDDDSAIIPCRTTDPETPVTLHNSEGVVPASYDSRQGFNGTFTVGPYICEATVKGKKFQTIPFNVYALKATSELDLEMEALKTVYKSGETIVVTCAVFNNEVVDLQWTYPGEVKGKGITMLEEIKVPSIKLVYTLTVPEATVKDSGDYECAARQATREVKEMKKVTISVHEKGGGGGSGGGGSGGGGSASPAAPAPASPAAPAPSAPAASPAAPAPASPAAPAPSAPAASPAAPAPASPAAPAPSAPAASPAAPAPASPAAPAPSAPAASPAAPAPASPAAPAPSAPAASPAAPAPASPAAPAPSAPAASPAAPAPASPAAPAPSAPAASPAAPAPASPAAPAPSAPAASPAAPAPASPAAPAPSAPAASPAAPAPASPAAPAPSAPAASPAAPAPASPAAPAPSAPAASPAAPAPASPAAPAPSAPAASPAAPAPASPAAPAPSAPAASPAAPAPASPAAPAPSAPAASPAAPAPASPAAPAPSAPAASPAAPAPASPAAPAPSAPAASPAAPAPASPAAPAPSAPAASPAAPAPASPAAPAPSAPAASPAAPAPASPAAPAPSAPAASPAAPAPASPAAPAPSAPAASPAAPAPASPAAPAPSAPAASPAAPAPASPAAPAPSAPAASPAAPAPASPAAPAPSAPAASPAAPAPASPAAPAPSAPAASPAAPAPASPAAPAPSAPAASPAAPAPASPAAPAPSAPAASPAAPAPASPAAPAPSAPAASPAAPAPASPAAPAPSAPAASPAAPAPASPAAPAPSAPAASPAAPAPASPAAPAPSAPAAGGGGSGGGGSGGGGSSDTGRPFVEMYSEIPEIIHMTEGRELVIPCRVTSPNITVTLKKFPLDTLIPDGKRIIWDSRKGFIISNATYKEIGLLTCEATVNGHLYKTNYLTHRQTNTIIDVVLSPSHGIELSVGEKLVLNCTARTELNVGIDFNWEYPSSKHQHKKLVNRDLKTQSGSEMKKFLSTLTIDGVTRSDQGLYTCAASSGLMTKKNSTFVRVHEKHHHHHH
notes: also called EPS1114P
B3: PDGFRαD123-PAS(600)-VEGFR1D2/R2D3 (receptor)
chain: QLSLPSILPNENEKVVQLNSSFSLRCFGESEVSWQYPMSEEESSDVEIRNEENNSGLFVTVLEVSSASAAHTGLYTCYYNHTQTEENELEGRHIYIYVPDPDVAFVPLGMTDYLVIVEDDDSAIIPCRTTDPETPVTLHNSEGVVPASYDSRQGFNGTFTVGPYICEATVKGKKFQTIPFNVYALKATSELDLEMEALKTVYKSGETIVVTCAVFNNEVVDLQWTYPGEVKGKGITMLEEIKVPSIKLVYTLTVPEATVKDSGDYECAARQATREVKEMKKVTISVHEKGASPAAPAPASPAAPAPSAPAASPAAPAPASPAAPAPSAPAASPAAPAPASPAAPAPSAPAASPAAPAPASPAAPAPSAPAASPAAPAPASPAAPAPSAPAASPAAPAPASPAAPAPSAPAASPAAPAPASPAAPAPSAPAASPAAPAPASPAAPAPSAPAASPAAPAPASPAAPAPSAPAASPAAPAPASPAAPAPSAPAASPAAPAPASPAAPAPSAPAASPAAPAPASPAAPAPSAPAASPAAPAPASPAAPAPSAPAASPAAPAPASPAAPAPSAPAASPAAPAPASPAAPAPSAPAASPAAPAPASPAAPAPSAPAASPAAPAPASPAAPAPSAPAASPAAPAPASPAAPAPSAPAASPAAPAPASPAAPAPSAPAASPAAPAPASPAAPAPSAPAASPAAPAPASPAAPAPSAPAASPAAPAPASPAAPAPSAPAASPAAPAPASPAAPAPSAPAASPAAPAPASPAAPAPSAPAASPAAPAPASPAAPAPSAPAASPAAPAPASPAAPAPSAPAASPAAPAPASPAAPAPSAPAASPAAPAPASPAAPAPSAPAASPAAPAPASPAAPAPSAPAASPAAPAPASPAAPAPSAPAASDTGRPFVEMYSEIPEIIHMTEGRELVIPCRVTSPNITVTLKKFPLDTLIPDGKRIIWDSRKGFIISNATYKEIGLLTCEATVNGHLYKTNYLTHRQTNTIIDVVLSPSHGIELSVGEKLVLNCTARTELNVGIDFNWEYPSSKHQHKKLVNRDLKTQSGSEMKKFLSTLTIDGVTRSDQGLYTCAASSGLMTKKNSTFVRVHEKHHHHHH
notes: also called EPS1113P
B4: PAS(200)-VEGFR1D2/R2D3-PDGFRαD123 (receptor)
chain: HHHHHHASPAAPAPASPAAPAPSAPAASPAAPAPASPAAPAPSAPAASPAAPAPASPAAPAPSAPAASPAAPAPASPAAPAPSAPAASPAAPAPASPAAPAPSAPAASPAAPAPASPAAPAPSAPAASPAAPAPASPAAPAPSAPAASPAAPAPASPAAPAPSAPAASPAAPAPASPAAPAPSAPAASPAAPAPASPAAPAPSAPASDTGRPFVEMYSEIPEIIHMTEGRELVIPCRVTSPNITVTLKKFPLDTLIPDGKRIIWDSRKGFIISNATYKEIGLLTCEATVNGHLYKTNYLTHRQTNTIIDVVLSPSHGIELSVGEKLVLNCTARTELNVGIDFNWEYPSSKHQHKKLVNRDLKTQSGSEMKKFLSTLTIDGVTRSDQGLYTCAASSGLMTKKNSTFVRVHEKQLSLPSILPNENEKVVQLNSSFSLRCFGESEVSWQYPMSEEESSDVEIRNEENNSGLFVTVLEVSSASAAHTGLYTCYYNHTQTEENELEGRHIYIYVPDPDVAFVPLGMTDYLVIVEDDDSAIIPCRTTDPETPVTLHNSEGVVPASYDSRQGFNGTFTVGPYICEATVKGKKFQTIPFNVYALKATSELDLEMEALKTVYKSGETIVVTCAVFNNEVVDLQWTYPGEVKGKGITMLEEIKVPSIKLVYTLTVPEATVKDSGDYECAARQATREVKEMKKVTISVHEKG
notes: the tag stands at the N-terminus; also called EPS1109P
B5: VEGFR1D2/R2D3-(GGGGS)3-PAS(600)-(GGGGS)3-PDGFRαD123 (receptor)
chain: SDTGRPFVEMYSEIPEIIHMTEGRELVIPCRVTSPNITVTLKKFPLDTLIPDGKRIIWDSRKGFIISNATYKEIGLLTCEATVNGHLYKTNYLTHRQTNTIIDVVLSPSHGIELSVGEKLVLNCTARTELNVGIDFNWEYPSSKHQHKKLVNRDLKTQSGSEMKKFLSTLTIDGVTRSDQGLYTCAASSGLMTKKNSTFVRVHEKGGGGSGGGGSGGGGSASPAAPAPASPAAPAPSAPAASPAAPAPASPAAPAPSAPAASPAAPAPASPAAPAPSAPAASPAAPAPASPAAPAPSAPAASPAAPAPASPAAPAPSAPAASPAAPAPASPAAPAPSAPAASPAAPAPASPAAPAPSAPAASPAAPAPASPAAPAPSAPAASPAAPAPASPAAPAPSAPAASPAAPAPASPAAPAPSAPAASPAAPAPASPAAPAPSAPAASPAAPAPASPAAPAPSAPAASPAAPAPASPAAPAPSAPAASPAAPAPASPAAPAPSAPAASPAAPAPASPAAPAPSAPAASPAAPAPASPAAPAPSAPAASPAAPAPASPAAPAPSAPAASPAAPAPASPAAPAPSAPAASPAAPAPASPAAPAPSAPAASPAAPAPASPAAPAPSAPAASPAAPAPASPAAPAPSAPAASPAAPAPASPAAPAPSAPAASPAAPAPASPAAPAPSAPAASPAAPAPASPAAPAPSAPAASPAAPAPASPAAPAPSAPAASPAAPAPASPAAPAPSAPAASPAAPAPASPAAPAPSAPAASPAAPAPASPAAPAPSAPAASPAAPAPASPAAPAPSAPAASPAAPAPASPAAPAPSAPAAGGGGSGGGGSGGGGSQLSLPSILPNENEKVVQLNSSFSLRCFGESEVSWQYPMSEEESSDVEIRNEENNSGLFVTVLEVSSASAAHTGLYTCYYNHTQTEENELEGRHIYIYVPDPDVAFVPLGMTDYLVIVEDDDSAIIPCRTTDPETPVTLHNSEGVVPASYDSRQGFNGTFTVGPYICEATVKGKKFQTIPFNVYALKATSELDLEMEALKTVYKSGETIVVTCAVFNNEVVDLQWTYPGEVKGKGITMLEEIKVPSIKLVYTLTVPEATVKDSGDYECAARQATREVKEMKKVTISVHEKGHHHHHH
notes: also called EPS1115P
B6: PAS(200)-PDGFRαD123-VEGFR1D2/R2D3 (receptor)
chain: HHHHHHASPAAPAPASPAAPAPSAPAASPAAPAPASPAAPAPSAPAASPAAPAPASPAAPAPSAPAASPAAPAPASPAAPAPSAPAASPAAPAPASPAAPAPSAPAASPAAPAPASPAAPAPSAPAASPAAPAPASPAAPAPSAPAASPAAPAPASPAAPAPSAPAASPAAPAPASPAAPAPSAPAASPAAPAPASPAAPAPSAPAQLSLPSILPNENEKVVQLNSSFSLRCFGESEVSWQYPMSEEESSDVEIRNEENNSGLFVTVLEVSSASAAHTGLYTCYYNHTQTEENELEGRHIYIYVPDPDVAFVPLGMTDYLVIVEDDDSAIIPCRTTDPETPVTLHNSEGVVPASYDSRQGFNGTFTVGPYICEATVKGKKFQTIPFNVYALKATSELDLEMEALKTVYKSGETIVVTCAVFNNEVVDLQWTYPGEVKGKGITMLEEIKVPSIKLVYTLTVPEATVKDSGDYECAARQATREVKEMKKVTISVHEKGSDTGRPFVEMYSEIPEIIHMTEGRELVIPCRVTSPNITVTLKKFPLDTLIPDGKRIIWDSRKGFIISNATYKEIGLLTCEATVNGHLYKTNYLTHRQTNTIIDVVLSPSHGIELSVGEKLVLNCTARTELNVGIDFNWEYPSSKHQHKKLVNRDLKTQSGSEMKKFLSTLTIDGVTRSDQGLYTCAASSGLMTKKNSTFVRVHEK
notes: the tag stands at the N-terminus; also called EPS1110P

For the assay, the target named is T1, human VEGF165 ligand (human, UniProt P15692-4 27-191).
T1 construct: also called VEGF-A165
T1 sequence (P15692 other isoform, or with tags, fused parts or gaps limits assumed): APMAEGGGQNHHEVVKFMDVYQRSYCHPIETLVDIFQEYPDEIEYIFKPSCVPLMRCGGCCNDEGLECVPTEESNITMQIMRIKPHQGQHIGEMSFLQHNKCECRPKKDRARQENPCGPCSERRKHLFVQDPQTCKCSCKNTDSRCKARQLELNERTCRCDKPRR
Briefly: serial dilution mixed with 50 pM human VEGF165 in solution, unbound VEGF165 measured by ELISA. The procedure: The amount of unbound VEGF₁₆₅ was then measured by a human VEGF-specific ELISA (Human VEGF DuoSet ELISA kit, R&D Systems, CAT. No. DY293B-05).
Unbound human VEGF₁₆₅ or PDGF-BB was calculated using 4 parameters curve with the absorbance value. And the IC₅₀ of the tested fusion proteins and the reference was calculated using 4 parameters curve with unbound human VEGF₁₆₅ or PDGF-BB.
As for B1, the IC50 is 0.869 nM.
Under B2 stands 0.506 nM.
In the case of B3 it was 0.646 nM.
In the case of B4 it was 0.218 nM; in that of B5, 0.44 nM; in that of B6, 0.331 nM.
